Reference: patent US20180280532A1

Molecular target: human Trop-2 (human) (UniProt P09758)
Test: cell binding assay, cell line not named

human Trop-2 (human), sequence (P09758 27-323): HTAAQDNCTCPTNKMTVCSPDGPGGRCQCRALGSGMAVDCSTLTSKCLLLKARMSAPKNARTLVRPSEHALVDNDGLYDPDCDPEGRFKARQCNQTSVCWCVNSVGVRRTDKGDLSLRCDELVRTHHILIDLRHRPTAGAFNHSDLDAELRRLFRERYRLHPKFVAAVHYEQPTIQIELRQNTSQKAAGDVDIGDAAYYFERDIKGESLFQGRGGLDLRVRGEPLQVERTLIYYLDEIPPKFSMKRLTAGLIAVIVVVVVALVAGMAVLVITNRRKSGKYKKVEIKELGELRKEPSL

Q: With hRS7-CL2A-SN-38 (antibody) as the substance, how does the Kd read?
A: 1.2 nM
